Key:
Assay in all cases: capture ELISA
BaL-gp120-G495A = biological target: T1, BaL-gp120-G495A (HIV-1 BaL)
T1 construct: domain: gp120

BaL-gp120-Y61A = biological target: T2, BaL-gp120-Y61A (HIV-1 BaL)
T2 construct: domain: gp120

BaL-gp120-V496A = biological target: T3, BaL-gp120-V496A (HIV-1 BaL)
T3 construct: domain: gp120

BaL-gp120-I491A = biological target: T4, BaL-gp120-I491A (HIV-1 BaL)
T4 construct: domain: gp120

BaL-gp120-D57A = biological target: T5, BaL-gp120-D57A (HIV-1 BaL)
T5 construct: domain: gp120

BaL-gp120 = biological target: T6, BaL-gp120 (HIV-1 BaL)
T6 construct: domain: gp120; also called monomeric gp120; monomeric BaL gp120

BaL-gp120-P76A = biological target: T7, BaL-gp120-P76A (HIV-1 BaL)
T7 construct: domain: gp120

BaL-gp120-F53A = biological target: T8, BaL-gp120-F53A (HIV-1 BaL)
T8 construct: domain: gp120

BaL-gp120-R476AR480A = biological target: T9, BaL-gp120-R476AR480A (HIV-1 BaL)
T9 construct: domain: gp120

BaL-gp120-E32A = biological target: T10, BaL-gp120-E32A (HIV-1 BaL)
T10 construct: domain: gp120

BaL-gp120-V44A = biological target: T11, BaL-gp120-V44A (HIV-1 BaL)
T11 construct: domain: gp120

BaL-gp120-K487AK490A = biological target: T12, BaL-gp120-K487AK490A (HIV-1 BaL)
T12 construct: domain: gp120

BaL-gp120-K500A = biological target: T13, BaL-gp120-K500A (HIV-1 BaL)
T13 construct: domain: gp120

BaL-gp120-S158A = biological target: T14, BaL-gp120-S158A (HIV-1 BaL)
T14 construct: domain: gp120

BaL-gp120-R58AK59A = biological target: T15, BaL-gp120-R58AK59A (HIV-1 BaL)
T15 construct: domain: gp120

BaL-gp120-L494A = biological target: T16, BaL-gp120-L494A (HIV-1 BaL)
T16 construct: domain: gp120

BaL-gp120-P493A = biological target: T17, BaL-gp120-P493A (HIV-1 BaL)
T17 construct: domain: gp120

BaL-gp120-Y40A = biological target: T18, BaL-gp120-Y40A (HIV-1 BaL)
T18 construct: domain: gp120

BaL-gp120-K46A = biological target: T19, BaL-gp120-K46A (HIV-1 BaL)
T19 construct: domain: gp120

BaL-gp120-E47A = biological target: T20, BaL-gp120-E47A (HIV-1 BaL)
T20 construct: domain: gp120

BaL-gp120-D57AD62A = biological target: T21, BaL-gp120-D57AD62A (HIV-1 BaL)
T21 construct: domain: gp120

BaL-gp120-K33A = biological target: T22, BaL-gp120-K33A (HIV-1 BaL)
T22 construct: domain: gp120

BaL-gp120-T499A = biological target: T23, BaL-gp120-T499A (HIV-1 BaL)
T23 construct: domain: gp120

BaL-gp120-D78A = biological target: T24, BaL-gp120-D78A (HIV-1 BaL)
T24 construct: domain: gp120

BaL-gp120-V68A = biological target: T25, BaL-gp120-V68A (HIV-1 BaL)
T25 construct: domain: gp120

BaL-gp120-D62A = biological target: T26, BaL-gp120-D62A (HIV-1 BaL)
T26 construct: domain: gp120

BaL-gp120-P498A = biological target: T27, BaL-gp120-P498A (HIV-1 BaL)
T27 construct: domain: gp120

BaL-gp120-S334A = biological target: T28, BaL-gp120-S334A (HIV-1 BaL)
T28 construct: domain: gp120; glycan mutant

BaL-gp120-H105A = biological target: T29, BaL-gp120-H105A (HIV-1 BaL)
T29 construct: domain: gp120

BaL-gp120-E492A = biological target: T30, BaL-gp120-E492A (HIV-1 BaL)
T30 construct: domain: gp120

BaL-gp120-E47AE91A = biological target: T31, BaL-gp120-E47AE91A (HIV-1 BaL)
T31 construct: domain: gp120

BaL-gp120-T303A = biological target: T32, BaL-gp120-T303A (HIV-1 BaL)
T32 construct: domain: gp120; glycan mutant, V3 region

BaL-gp120-W35A = biological target: T33, BaL-gp120-W35A (HIV-1 BaL)
T33 construct: domain: gp120

BaL-gp120-E106AD107A = biological target: T34, BaL-gp120-E106AD107A (HIV-1 BaL)
T34 construct: domain: gp120

BaL-gp120-Y39A = biological target: T35, BaL-gp120-Y39A (HIV-1 BaL)
T35 construct: domain: gp120

BaL-gp120-D368R = biological target: T36, BaL-gp120-D368R (HIV-1 BaL)
T36 construct: domain: gp120

BaL-gp120-S200A = biological target: T37, BaL-gp120-S200A (HIV-1 BaL)
T37 construct: domain: gp120; also called 5200A

BaL-gp120-T455A = biological target: T38, BaL-gp120-T455A (HIV-1 BaL)
T38 construct: domain: gp120

FLSC = biological target: T39, FLSC (HIV-1, UniProt P01730 26-208)
T39 construct: not shown: linker of FLSC not described

BaL-gp120-E31A = biological target: T40, BaL-gp120-E31A (HIV-1 BaL)
T40 construct: domain: gp120

BaL-gp120-W45A = biological target: T41, BaL-gp120-W45A (HIV-1 BaL)
T41 construct: domain: gp120

BaL-gp120-T162A = biological target: T42, BaL-gp120-T162A (HIV-1 BaL)
T42 construct: domain: gp120; glycan mutant

BaL-gp120-I420R = biological target: T43, BaL-gp120-I420R (HIV-1 BaL)
T43 construct: domain: gp120; also called -1420R

BaL-gp120-D57AD78A = biological target: T44, BaL-gp120-D57AD78A (HIV-1 BaL)
T44 construct: domain: gp120

B1: N60-B1.1 (antibody, V domains shown)
VH: QLQLQESGPGLVKPSGTLSLTCSVSGGSMNGRNIYWAWIRQTPGKGLEWIGSVDVSDEDAGRTFYKWPIKSRASISADTSKNQFSLKLSSVTVADTGVYYCARETLYYVGNGYYYPLDVFYYNYYMDVWGKGTTVSVSS
VL: not shown
notes: also called bnAb N60-B1.1
BaL-gp120-G495A
  % Binding: 106%
BaL-gp120-Y61A
  % Binding: 92%
BaL-gp120-V496A
  % Binding: 107%
BaL-gp120-I491A
  % Binding: 85%
BaL-gp120-D57A
  % Binding: 98%
BaL-gp120
  % Binding: 100%
BaL-gp120-P76A
  % Binding: 102%
BaL-gp120-F53A
  % Binding: 90%
BaL-gp120-R476AR480A
  % Binding: 5%
BaL-gp120-E32A
  % Binding: 108%
BaL-gp120-V44A
  % Binding: 114%
BaL-gp120-K487AK490A
  % Binding: 31%
BaL-gp120-K500A
  % Binding: 94%
BaL-gp120-S158A
  % Binding: 3%
BaL-gp120-R58AK59A
  % Binding: 92%
BaL-gp120-L494A
  % Binding: 99%
BaL-gp120-P493A
  % Binding: 92%
BaL-gp120-Y40A
  % Binding: 139%
BaL-gp120-K46A
  % Binding: 50%
BaL-gp120-E47A
  % Binding: 78%
BaL-gp120-D57AD62A
  % Binding: 76%
BaL-gp120-K33A
  % Binding: 76%
BaL-gp120-T499A
  % Binding: 102%
BaL-gp120-D78A
  % Binding: 108%
BaL-gp120-V68A
  % Binding: 68%
BaL-gp120-D62A
  % Binding: 80%
BaL-gp120-P498A
  % Binding: 101%
BaL-gp120-S334A
  % Binding: 91%
BaL-gp120-H105A
  % Binding: 88%
BaL-gp120-E492A
  % Binding: 113%
BaL-gp120-E47AE91A
  % Binding: 73%
BaL-gp120-T303A
  % Binding: 2%
BaL-gp120-W35A
  % Binding: 132%
BaL-gp120-E106AD107A
  % Binding: 36%
BaL-gp120-Y39A
  % Binding: 121%
BaL-gp120-D368R
  % Binding: 99%
BaL-gp120-S200A
  % Binding: 22%
BaL-gp120-T455A
  % Binding: 73%
FLSC
  % Binding: 10%
BaL-gp120-E31A
  % Binding: 103%
BaL-gp120-W45A
  % Binding: 84%
BaL-gp120-T162A
  % Binding: 100%
BaL-gp120-I420R
  % Binding: 22%
BaL-gp120-D57AD78A
  % Binding: 103%
